Here are results for 1 substance from PMC4813479, “β-Subunit Binding Is Sufficient for Ligands to Open the Integrin αIIbβ3 Headpiece” (The Journal of Biological Chemistry, 2015).

The target of the assay is full-length human αIIbβ3 on CHO K1 cells (human) (UniProt P08514).

On to fibronectin hexapeptide GRGDSP, for which the EC50 of LIBS1 epitope exposure on CHO cells expressing αIIbβ3 (flow cytometry, 1 mM Mg2+ and 1 mM Ca2+) stood at 210 µM.
